Source: PMC6170606, “Biological and Biochemical Roles of Two Distinct Cyclic Dimeric Adenosine 3′,5′-Monophosphate- Associated Phosphodiesterases in Streptococcus mutans” (Frontiers in Microbiology, 2018)

What was measured:
[1] = tested on: Nc1ncnc2c1ncn2[C@@H]1O[C@H](COP(=O)(O)O[C@H]2[C@@H](O)[C@H](n3cnc4c(N)ncnc43)O[C@@H]2COP(=O)(O)O)[C@@H](O)[C@H]1O; assay: initial rate, LC quantification of end product AMP (A254); assay type: biochemical, Streptococcus mutans; settings: 50 mM potassium phosphate pH 7.0, 1 mM MnCl2, 0-0.3 mM substrate
From the text: initial rate, LC quantification of end product AMP (A254) on rDhhP-ProS2 (recombinant DhhP, SMU_1297)

[2] = tested on: [H][C@@]1(O)[C@]2([H])OP(=O)(O)OC[C@@]3([H])O[C@@]([H])(n4cnc5c(N)ncnc54)[C@]([H])(O)[C@]3([H])OP(=O)(O)OC[C@@]2([H])O[C@@]1([H])n1cnc2c(N)ncnc21; assay: purified protein; settings: 50 mM potassium phosphate pH 5.0, 1 mM MnCl2, 0-0.3 mM substrate
From the text: initial rate, LC quantification of end product pApA (A254) on rGdpP109-657-ProS2 (truncated recombinant GdpP, SMU_2140c)

Substance	Km [1]	Vmax [1]	kcat [1]	Km [2]	Vmax [2]	kcat [2]
rDhhP-ProS2 (recombinant DhhP, SMU_1297) (Streptococcus mutans UA159)	199 ± 65.4 µM	32.1 µmol/min/mg	36.5 ± 8.08 s⁻¹			
rGdpP109-657-ProS2 (truncated recombinant GdpP, SMU_2140c) (Streptococcus mutans UA159)				89.7 ± 7.29 µM	4.58 µmol/min/mg	4.02 ± 0.2 s⁻¹
